In US20250340661A1, “ANTI CD40 ANTIBODY, ANTIGEN BINDING FRAGMENT AND MEDICAL USE THEREOF” (Jiangsu Hengrui Pharmaceuticals Co., Ltd., priority 2021, published 2025):

Columns and labels:
[1] = biological target: CD40 (Homo sapiens, UniProt P25942); assay: FACS binding of human-rabbit chimeric anti-CD40 antibodies to Raji cells
Procedure: Raji cells are of a tumor cell line that overexpresses human CD40. 2E5 Raji cells were inoculated onto a 96-well plate. 100 μL of a test antibody was added, with the highest final concentration of 100 nM. The antibody was 5-fold diluted to 8 concentrations. The plate was incubated at 4° C. for 1 h. The plate was washed once with wash buffer, and an AF647-conjugated anti-human IgG antibody (Jackson Immunoresearch Laborotories, Cat. #205-609-088) was added at a dilution ratio of 1:500. The plate was incubated at 4° C. for 30 min. The plate was washed once with wash buffer, and fluorescence intensity was measured using a flow cytometer. The binding EC50 values of the anti-CD40 antibodies for CD40 were calculated. The anti-CD40 antagonistic antibody CFZ533 (i.e., iscalimab, Nova) was used as a positive control, and the heavy and light chain variable region sequences were derived from sequence 5 and sequence 2 of U.S. Pat. No. 8,277,810B, respectively.

[2] = PK assay in human CD40 transgenic mice; type: in vivo, mouse; conditions: hCD40 transgenic mice, 10 mg/kg intraperitoneal, plasma
Excerpt: The plate was washed three times with wash buffer.

CD40, sequence (P25942 21-277): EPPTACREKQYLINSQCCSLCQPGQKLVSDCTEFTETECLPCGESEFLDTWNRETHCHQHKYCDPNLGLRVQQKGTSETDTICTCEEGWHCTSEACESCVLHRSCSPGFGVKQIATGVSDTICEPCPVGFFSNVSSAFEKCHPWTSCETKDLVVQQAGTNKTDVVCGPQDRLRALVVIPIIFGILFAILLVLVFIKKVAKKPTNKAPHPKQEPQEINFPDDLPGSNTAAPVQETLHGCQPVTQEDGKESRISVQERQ

CFZ533: anti-CD40 antagonistic antibody (iscalimab), positive control; variable regions from U.S. Pat. No. 8,277,810B [reference compound]
EC50 [1]: 2.41 nM | AUC(0-d 14) [2]: 12655 (h)*(mg/L) | Cmax [2]: 75.95 µg/mL | T½ [2]: 214.8 h
